{
  "source": "patent US10781452B2",
  "about": "“FLT3 receptor antagonists for the treatment or the prevention of pain disorders” (INSTITUT NATIONAL DE LA SANTE ET DE LA RECHERCHE MEDICALE …, priority 2010, dated 2020)",
  "molecules": {"B1": {"name": "A3 antibody: human monoclonal antibody against FLT3; VH SEQ ID NO:1, VL SEQ ID NO:2 (antibody, V domains shown)", "VH": "EVQLVESGGSLVKPGGSLRLSCAASGFTFSNSYMNWVRQAPGKGLEWISDISGSSRDIDYADFVKGRFTISRDNATNSLYLQMNSLRAEDTAVYYCVRSGNSGMDVWGRGTLVTVSS", "VL": "QSVLTQPASVSGSPGQSITISCAGTSSDVGGGYYVSWYQQHPGKAPKLMIYYDSYRPSGVSNRFSGSKSGNTASLTISGLQAEDEADYYCSSYTNNSTRVFGGGTKLEIK", "modifications": "Synthetic VH domain of A3; Synthetic VL region of A3"}},
  "target": "T1, full-length mFLT3 (Mus musculus, UniProt Q00342)",
  "T1 construct": "host or cells: HEK293T",
  "T1 sequence (Q00342 28-1000)": "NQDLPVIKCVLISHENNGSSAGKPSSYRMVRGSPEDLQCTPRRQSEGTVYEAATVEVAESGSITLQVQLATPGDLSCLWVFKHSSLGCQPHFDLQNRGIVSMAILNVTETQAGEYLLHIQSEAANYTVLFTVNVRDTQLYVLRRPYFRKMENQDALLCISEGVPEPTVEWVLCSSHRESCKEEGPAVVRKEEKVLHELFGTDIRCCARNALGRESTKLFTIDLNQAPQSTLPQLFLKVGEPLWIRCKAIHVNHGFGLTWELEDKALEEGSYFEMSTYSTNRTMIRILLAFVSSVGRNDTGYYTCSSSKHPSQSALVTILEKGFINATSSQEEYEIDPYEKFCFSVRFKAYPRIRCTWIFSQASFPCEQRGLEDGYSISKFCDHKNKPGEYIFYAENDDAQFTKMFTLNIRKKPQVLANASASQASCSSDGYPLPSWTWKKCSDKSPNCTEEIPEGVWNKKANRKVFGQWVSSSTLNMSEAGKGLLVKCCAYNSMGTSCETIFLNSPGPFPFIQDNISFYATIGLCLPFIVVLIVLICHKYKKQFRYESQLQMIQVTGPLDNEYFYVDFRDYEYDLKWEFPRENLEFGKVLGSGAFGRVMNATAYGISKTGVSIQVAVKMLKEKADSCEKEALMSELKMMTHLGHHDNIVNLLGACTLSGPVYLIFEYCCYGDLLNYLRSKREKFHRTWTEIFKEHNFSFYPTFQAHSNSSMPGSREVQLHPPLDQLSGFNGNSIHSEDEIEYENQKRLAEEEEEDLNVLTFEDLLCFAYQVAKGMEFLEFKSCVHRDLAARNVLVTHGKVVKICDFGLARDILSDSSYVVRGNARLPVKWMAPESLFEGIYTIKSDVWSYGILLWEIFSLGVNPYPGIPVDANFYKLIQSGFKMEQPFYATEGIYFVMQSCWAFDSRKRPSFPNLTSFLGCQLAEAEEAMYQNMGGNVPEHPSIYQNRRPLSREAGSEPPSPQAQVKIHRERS",
  "test": "TR-FRET displacement of Red-FL binding, HEK cells expressing full-length mFLT3",
  "conditions": "HEK cells expressing full-length mFLT3, 0.5 nM Red-FL",
  "experimental": "The binding of the A3 antibody to full-length hFLT3 and mFLT3 was measured by displacement of extracellular FL binding on recombinant HEK cells by using time-resolved fluorescence resonance energy transfer (TR-FRET).\nChemicals and reagents. The Tag-lite® labeling medium was from Cisbio Bioassays (Condolet, France). The Lumi4-Tb derivative of O6-Benzylguanine was synthesized by Cisbio Bioassays and is commercialized as SNAP-Lumi4-Tb (Cisbio Bioassays, Ref. SSNPTBE).\nA recombinant rh-FLT3-L was produced as previously reported (Verstraete K, et al. Efficient production of bioactive recombinant human Flt3 ligand in E. coli. Protein J, 2009 28: 57-65) and labeled with a red fluorescent probe (Red-FL). Poly-L-ornithine (MW of 30,000-70,000 daltons) was from Sigma-Aldrich. The plasmids encoding for the SNAP tagged human FLT3 (pSNAP-hFLT3) or the mouse FLT3 (pSNAP-mFLT3) used for transient transfection was obtained from Cisbio Bioassays. Monoclonal antibodies against FLT3 (8F2) and phosphotyrosine FLT3 (PY969) were purchased from Cell Signaling Technology and labeled with Lumi4-Tb and d2 respectively, by Cisbio.\nCell culture. HEK293T cells, used for binding assays, were maintained in DMEM Glutamax (Invitrogen) supplemented with antibiotics (penicillin 50 U/ml, streptomycin 50 μg/ml) and 10% heat-inactivated Fetal Calf Serum.\nTransfection procedures. […]",
  "data": [
    {"molecule": "B1", "values": [
      {"measurement": "IC50, displacement of FL binding", "result": "about 17 μg/ml"}
    ]}
  ]
}
